# Legend:
# [1] = biological target: recombinant CD81-LEL protein (large extracellular loop of human CD81) with a GST tag (human) (UniProt P60033); test: DPI, E2 protein alone added to immobilised CD81
# [2] = biological target: recombinant CD81-LEL protein (large extracellular loop of human CD81) with a GST tag (human) (UniProt P60033); test: DPI, E2 protein added to immobilised CD81 together with small molecule 30930
# [3] = biological target: recombinant CD81-LEL protein (large extracellular loop of human CD81) with a GST tag (human) (UniProt P60033); test: DPI, E2 protein added to immobilised CD81 together with small molecule 93033
# [4] = biological target: recombinant CD81-LEL protein (large extracellular loop of human CD81) with a GST tag (human) (UniProt P60033); test: DPI, E2 protein added to immobilised CD81 together with small molecule 165665
# [5] = biological target: recombinant CD81-LEL protein (large extracellular loop of human CD81) with a GST tag (human) (UniProt P60033); test: DPI, E2 protein added to immobilised CD81 together with small molecule 689002
# [6] = biological target: recombinant CD81-LEL protein (large extracellular loop of human CD81) with a GST tag (human) (UniProt P60033); test: DPI, E2 protein added to immobilised CD81 together with small molecules 93033 and 16631
# [7] = biological target: recombinant CD81-LEL protein (large extracellular loop of human CD81) with a GST tag (human) (UniProt P60033); test: DPI, E2 protein added to immobilised CD81 together with small molecules 689002 and 93033
# [8] = biological target: recombinant CD81-LEL protein (large extracellular loop of human CD81) with a GST tag (human) (UniProt P60033); test: DPI, E2 protein added to immobilised CD81 together with small molecules 93033 and 165665
# [9] = biological target: recombinant CD81-LEL protein (large extracellular loop of human CD81) with a GST tag (human) (UniProt P60033); test: DPI, E2 protein added to immobilised CD81 together with small molecules 30930 and 68365 (so in the source)
substance,measurement,setting,value
HCV E2 protein (ligand),DPI Binding Response (Radians),[1],4.14 Radians
same,DPI Binding Response (Radians),[2],2.53 Radians
same,DPI Binding Response (Radians),[3],0.255 Radians
same,DPI Binding Response (Radians),[4],-0.0047 Radians
same,DPI Binding Response (Radians),[5],2.7 Radians
same,DPI Binding Response (Radians),[6],0.531 Radians
same,DPI Binding Response (Radians),[7],0.401 Radians
same,DPI Binding Response (Radians),[8],0.765 Radians
same,DPI Binding Response (Radians),[9],1.45 Radians
